B1: mRNA-splicing (parent)
chain: AGUUGCUGCUGGGAGCUCCAGCACAGUGAAAUGGACAGAAGGGCAGAGCAA

Variants of: B1
Experiment: exon inclusion enrichment index; higher = more inclusion; WT1 exon 5 minigene, HEK293

Variant | exon inclusion enrichment index
G5A C6G U7G C9A C19A A20C | 0.00131
G5A C6G U7G C9A C19A A20U | 0.00128
G5A C6G U7G C9A C19A A20G | 0.00156
G5A C6G U7G C9A C44U A45C | 0.00286
G5A C6G U7G C9A C44U A45U | 0.000761
G5A C6G U7G C9A C44U A45G | 0.00135
G5A C6G U7G C9A G15C | 0.00583
G5A C6G U7G C9A G15U | 0.000857
G5A C6G U7G C9A G15A | 0.00165
G5A C6G U7G C9A C16U U17G | 0.0132
G5A C6G U7G C9A C16U U17A | 0.00236
G5A C6G U7G C9A C16U U17C | 0.000766
G5A C6G U7G C9A G13U | 0.000555
G5A C6G U7G C9A G13A | 0.0025
G5A C6G U7G C9A G13C | 0.00103
G5A C6G U7G C9A A45U | 0.00141
G5A C6G U7G C9A A45C | 0.00288
G5A C6G U7G C9A A45G | 0.00308
G5A C6G U7G C9A C18G C19A | 0.00169
G5A C6G U7G C9A C18G C19U | 0.00119
G5A C6G U7G C9A C18G C19G | 0.0012
G5A C6G U7G C9A G13U A14U | 0.000524
G5A C6G U7G C9A G13U A14C | 0.00403
G5A C6G U7G C9A G13U A14G | 0.00052

Variant | exon inclusion enrichment index
G5A C6G U7G C9A G15A C16A | 0.000736
G5A C6G U7G C9A G15A C16U | 0.000755
G5A C6G U7G C9A G15A C16G | 0.00097
G5A C6G U7G C9A A40C G41U | 0.00114
G5A C6G U7G C9A A40C G41A | 0.00061
G5A C6G U7G C9A A40C G41C | 0.0197
G5A C6G U7G C9A G11U G12U | 0.000733
G5A C6G U7G C9A G11U G12C | 0.00339
G5A C6G U7G C9A G11U G12A | 0.00148
G5A C6G U7G C9A C44A A45C | 0.00399
G5A C6G U7G C9A C44A A45G | 0.0102
G5A C6G U7G C9A C44A A45U | 0.0154
G5A C6G U7G C9A C18U C19G | 0.00111
G5A C6G U7G C9A C18U C19A | 0.00106
G5A C6G U7G C9A C18U C19U | 0.00102
G5A C6G U7G C9A G15U C16A | 0.00611
G5A C6G U7G C9A G15U C16G | 0.00106
G5A C6G U7G C9A C18A | 0.000986
G5A C6G U7G C9A C18U | 0.000744
G5A C6G U7G C9A C18G | 0.00165
G5A C6G U7G C9A G12U G13C | 0.00117
G5A C6G U7G C9A G12U G13U | 0.000533
G5A C6G U7G C9A G12U G13A | 0.000517
G5A C6G U7G C9A G13C A14U | 0.0025

Variant | exon inclusion enrichment index
G5A C6G U7G C9A G13C A14C | 0.00967
G5A C6G U7G C9A G13C A14G | 0.00374
G5A C6G U7G C9A A47G G48A | 0.000837
G5A C6G U7G C9A A47G G48U | 0.000624
G5A C6G U7G C9A A47G G48C | 0.000801
G5A C6G U7G C9A C44G A45C | 0.00471
G5A C6G U7G C9A C44G A45U | 0.00421
G5A C6G U7G C9A C44G A45G | 0.00929
G5A C6G U7G C9A G15C C16U | 0.000839
G5A C6G U7G C9A G15C C16A | 0.00139
G5A C6G U7G C9A G15C C16G | 0.004
G5A C6G U7G C9A A47U G48C | 0.000966
G5A C6G U7G C9A A47U G48A | 0.00057
G5A C6G U7G C9A A47U G48U | 0.000738
G5A C6G U7G C9A C24G A25G | 0.00108
G5A C6G U7G C9A C24G A25U | 0.00102
G5A C6G U7G C9A C24G A25C | 0.00471
G5A C6G U7G C9A C16G U17G | 0.0104
G5A C6G U7G C9A C16G U17C | 0.00106
G5A C6G U7G C9A C16G U17A | 0.00122
G5A C6G U7G C9A C22G | 0.00114
G5A C6G U7G C9A C22A | 0.00351
G5A C6G U7G C9A C22U | 0.000826
G5A C6G U7G C9A G11A G12A | 0.00145

Variant | exon inclusion enrichment index
G5A C6G U7G C9A G11A G12C | 0.00102
G5A C6G U7G C9A G11A G12U | 0.000779
G5A C6G U7G C9A C18A C19G | 0.00131
G5A C6G U7G C9A C18A C19A | 0.0013
G5A C6G U7G C9A C18A C19U | 0.00126
G5A C6G U7G C9A A45C G46C | 0.00399
G5A C6G U7G C9A A45C G46U | 0.0014
G5A C6G U7G C9A A45C G46A | 0.000901
G5A C6G U7G C9A A47C | 0.0181
G5A C6G U7G C9A A47G | 0.00123
G5A C6G U7G C9A A47U | 0.00119
G5A C6G U7G C9A C19U A20U | 0.00173
G5A C6G U7G C9A C19U A20C | 0.00291
G5A C6G U7G C9A C19U A20G | 0.00155
G5A C6G U7G C9A C36A | 0.000983
G5A C6G U7G C9A C36G | 0.000918
G5A C6G U7G C9A C36U | 0.00174
G5A C6G U7G C9A C44U | 0.000609
G5A C6G U7G C9A C44A | 0.00167
G5A C6G U7G C9A C44G | 0.00206
G5A C6G U7G C9A C24A A25G | 0.0011
G5A C6G U7G C9A C24A A25C | 0.0413
G5A C6G U7G C9A C24A A25U | 0.00166
G5A C6G U7G C9A G13A A14C | 0.0219

Variant | exon inclusion enrichment index
G5A C6G U7G C9A G13A A14U | 0.0021
G5A C6G U7G C9A G13A A14G | 0.00529
G5A C6G U7G C9A G12A G13U | 0.00417
G5A C6G U7G C9A G12A G13C | 0.0057
G5A C6G U7G C9A G12A G13A | 0.00149
G5A C6G U7G C9A C22U A23G | 0.00203
G5A C6G U7G C9A C22U A23C | 0.000879
G5A C6G U7G C9A C22U A23U | 0.00262
G5A C6G U7G C9A G11C G12C | 0.00959
G5A C6G U7G C9A G11C G12A | 0.000679
G5A C6G U7G C9A G11C G12U | 0.00113
G5A C6G U7G C9A G11A | 0.000945
G5A C6G U7G C9A G11C | 0.00307
G5A C6G U7G C9A G11U | 0.00542
G5A C6G U7G C9A G12U | 0.00152
G5A C6G U7G C9A G12C | 0.00529
G5A C6G U7G C9A G12A | 0.000801
G5A C6G U7G C9A C36A A37U | 0.00282
G5A C6G U7G C9A C36A A37C | 0.00188
G5A C6G U7G C9A C36A A37G | 0.00191
G5A C6G U7G C9A C36U A37C | 0.000996
G5A C6G U7G C9A C36U A37U | 0.00084
G5A C6G U7G C9A C36U A37G | 0.00557
G5A C6G U7G C9A C19G A20G | 0.00172

Variant | exon inclusion enrichment index
G5A C6G U7G C9A C19G A20C | 0.00232
G5A C6G U7G C9A C19G A20U | 0.00167
G5A C6G U7G C9A A40G | 0.00228
G5A C6G U7G C9A A40C | 0.00374
G5A C6G U7G C9A A40U | 0.00193
G5A C6G U7G C9A C16A | 0.00192
G5A C6G U7G C9A C16G | 0.00149
G5A C6G U7G C9A C16U | 0.000705
G5A C6G U7G C9A A45G G46A | 0.0107
G5A C6G U7G C9A A45G G46C | 0.00144
G5A C6G U7G C9A A45G G46U | 0.00135
G5A C6G U7G C9A C24U A25C | 0.0183
G5A C6G U7G C9A C24U A25U | 0.000784
G5A C6G U7G C9A C24U A25G | 0.00148
G5A C6G U7G C9A A47C G48C | 0.00224
G5A C6G U7G C9A A47C G48A | 0.011
G5A C6G U7G C9A A47C G48U | 0.00274
G5A C6G U7G C9A G12C G13A | 0.00586
G5A C6G U7G C9A G12C G13C | 0.00164
G5A C6G U7G C9A G12C G13U | 0.000686
G5A C6G U7G C9A C19A | 0.00105
G5A C6G U7G C9A C19U | 0.00126
G5A C6G U7G C9A C19G | 0.00133
G5A C6G U7G C9A C22A A23U | 0.00131

Variant | exon inclusion enrichment index
G5A C6G U7G C9A C22A A23C | 0.0031
G5A C6G U7G C9A C22A A23G | 0.000928
G5A C6G U7G C9A A40G G41U | 0.00052
G5A C6G U7G C9A A40G G41A | 0.0007
G5A C6G U7G C9A A40G G41C | 0.0252
G5A C6G U7G C9A C16A U17C | 0.00344
G5A C6G U7G C9A C16A U17G | 0.00129
G5A C6G U7G C9A C16A U17A | 0.00207
G5A C6G U7G C9A C22G A23G | 0.00134
G5A C6G U7G C9A C22G A23C | 0.000809
G5A C6G U7G C9A C22G A23U | 0.000928
G5A C6G U7G C9A A45U G46A | 0.00219
G5A C6G U7G C9A A45U G46C | 0.00134
G5A C6G U7G C9A A45U G46U | 0.000766
G5A C6G U7G C9A A40U G41C | 0.0209
G5A C6G U7G C9A A40U G41U | 0.000481
G5A C6G U7G C9A A40U G41A | 0.000658
G5A C6G U7G C9A C36G A37G | 0.00376
G5A C6G U7G C9A C36G A37U | 0.00107
G5A C6G U7G C9A C36G A37C | 0.00103
G5A C6G U7G C9A C24G | 0.00883
G5A C6G U7G C9A C24A | 0.00195
G5A C6G U7G C9A C24U | 0.00094

From the RNAGym collection of RNA variant scans (doi:10.1101/gr.219683.116)
